Data as given in paper PMC7781312 (bioRxiv, 2021).
Non-standard residues stand in square brackets, D forms with d. Primed or numbered codes have the meaning given here. No end group written: not given here. PEG6′ = PEG spacer between stem peptide and Lys-biotin; Biotin′ = not defined here

Key:
[1] = molecular target: T1, biotinylated mouse hepatitis virus S stem helix peptide (Murine hepatitis virus A59 (P11224), UniProt P11224); assay: BLI
T1 chain: DFKEELDKWFKNQTS[PEG6′]K-{Biotin′}

[2] = molecular target: T2, biotinylated OC43 S stem helix peptide (HCoV-OC43 (Q696P8), UniProt Q696P8); assay: BLI
T2 chain: DFKEELDQWFKNQTS[PEG6′]K-{Biotin′}

[3] = molecular target: T3, biotinylated HKU4 S stem helix peptide (Bat coronavirus HKU4 (A3EX94), UniProt A3EX94); assay: BLI
T3 chain: DFKDELEEFFKNVTS[PEG6′]K-{Biotin′}

[4] = molecular target: T4, biotinylated HKU5 S stem helix peptide (Bat coronavirus HKU5 (A3EXD0), UniProt A3EXD0); assay: BLI
T4 chain: DFKEELEEFFKNVSS[PEG6′]K-{Biotin′}

[5] = molecular target: T5, biotinylated SARS-CoV/SARS-CoV-2 S stem helix peptide (SARS-CoV-2 / SARS-CoV, identical …, UniProt P0DTC2); assay: BLI
T5 chain: SFKEELDKYFKNHTS[PEG6′]K-{Biotin′}

[6] = molecular target: T6, biotinylated MERS-CoV S stem helix peptide (MERS-CoV EMC/2012 (AFS88936), UniProt K0BRG7); assay: BLI
T6 chain: DFQDELDEFFKNVST[PEG6′]K-{Biotin′}

[7] = molecular target: T7, SARS-CoV/SARS-CoV-2 S stem helix peptide (crystallised) (SARS-CoV-2 / SARS-CoV, identical …, UniProt P0DTC2); assay: crystal structure
T7 chain: SFKEELDKYFKNHTS

[8] = molecular target: T8, HKU4 S stem helix peptide, residues 1231-1245 (crystallised) (bat coronavirus HKU4, UniProt A3EX94); assay: crystal structure
T8 chain: DFKDELEEFFKNVTS

[9] = molecular target: T9, MERS-CoV S stem helix peptide, residues 1230-1240 (crystallised) (MERS-CoV (EMC/2012 numbering), UniProt K9N5Q8); assay: crystal structure
T9 chain: DFQDELDEFFK

[10] = molecular target: T10, MERS-CoV S stem helix peptide, residues 1230-1244 (crystallised) (MERS-CoV, UniProt K9N5Q8); assay: crystal structure
T10 chain: DFQDELDEFFKNVST

Measured: binding result

B1: B6 monoclonal antibody (recombinant IgG with human constant regions) (antibody, V domains shown)
VH: EVQLQQSGPVLVKPGASVRMSCKASGYTITDYYLNWVKQSHGKSLEWLGVLNPYSGGSLYSQTFKGKATLTVDRSSSTAYLELNSLTSEDSAVYYCARQLGRGNGLDYWGQGTSVTVSS
VL: NIMMTQSPSSLAVSAGEKVTMSCKSSQSVLHSSDQKNYLAWYQQKPGQSPKLLIYWASTRESGVPDRFTGSGSGTDFTLTISSVQAEDLAVYFCHQYLSSYTFGGGTKLEIK
binds: [1] | [2] | [3] | [4] | [5] | [6]

B2: B6 Fab fragment (Fab, V domains shown)
VH: EVQLQQSGPVLVKPGASVRMSCKASGYTITDYYLNWVKQSHGKSLEWLGVLNPYSGGSLYSQTFKGKATLTVDRSSSTAYLELNSLTSEDSAVYYCARQLGRGNGLDYWGQGTSVTVSS
VL: NIMMTQSPSSLAVSAGEKVTMSCKSSQSVLHSSDQKNYLAWYQQKPGQSPKLLIYWASTRESGVPDRFTGSGSGTDFTLTISSVQAEDLAVYFCHQYLSSYTFGGGTKLEIK
binds: all assays above
